According to patent US20130303441A1 (YEDA RESEARCH AND DEVELOPMENT, published 2013):
Square brackets hold non-standard residues; d marks the D form. Ends that are not written are not given here. pS = N[C@@H](COP(=O)(O)O)C(=O)O

Molecular target: wild-type (WT) GSK-3β (human, UniProt P49841 1-420, limits assumed)
Experiment: cell-based or functional assay

wild-type (WT) GSK-3β, sequence (P49841 other isoform, or with tags, fused parts or gaps limits assumed): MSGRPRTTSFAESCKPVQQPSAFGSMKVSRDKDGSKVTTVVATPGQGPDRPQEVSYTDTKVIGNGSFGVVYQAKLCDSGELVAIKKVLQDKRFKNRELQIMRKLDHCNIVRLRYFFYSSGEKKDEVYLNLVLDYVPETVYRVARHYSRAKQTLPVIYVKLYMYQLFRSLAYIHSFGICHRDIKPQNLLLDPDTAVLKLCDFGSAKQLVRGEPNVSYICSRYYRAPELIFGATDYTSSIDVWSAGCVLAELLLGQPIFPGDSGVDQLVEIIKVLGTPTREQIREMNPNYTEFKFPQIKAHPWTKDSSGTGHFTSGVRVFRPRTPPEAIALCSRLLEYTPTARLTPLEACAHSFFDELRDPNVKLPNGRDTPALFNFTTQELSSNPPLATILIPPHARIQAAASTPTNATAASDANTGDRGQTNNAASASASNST

- IC50, in vitro kinase assay: ~150 µM
- in vitro kinase assays with GSK-3β in the presence of L803 or L803F (200 µM each); inhibition relative to L803: ~50 % relatively to L803
B1: L803F, Lys-Glu-Ala-Pro-Pro-Ala-Pro-Pro-Gln-phosphorylated Ser-Pro-Phe (peptide)
peptide: KEAPPAPPQ[pS]PF
